Where a chain is given by its changes, count along the chain named.
B1: mouse anti-human CD22 monoclonal antibody (antibody, V domains shown)
VH: QVQLQQSGAELVKPGASVKMSCKASGYTFTSYWLHWIKQRPGQGLEWIGYINPRNDYTEYNQKFKDKATLTADKSSSTAYMQLSSLTSEDSAVYYCARRDITTFYWGQGTTLTVSS
VL: DIQLTQSPSSLAVSAGENVTMSCKSSQSVLYSANHKNYLAWYQQKPGQSPKLLIYWASTRESGVPDRFTGSGSGTDFTLTISRVQVEDLAIYYCHQYLSSWTFGGGTKLEIK
B2: MSM R707 in IgG4 format (antibody)
heavy: EVQLLESGGGLVQPGGSLRLSCAASGFTFSNYAIHWVRQAPGKGLEWVSAITPRGGYTYYADSVKGRFTISRDNSKNTLYLQMNSLRAEDTAVYYCARGLTMMYTPGMDYWGQGTLVTVSSASTKGPSVFPLAPCSRSTSESTAALGCLVKDYFPEPVTVSWNSGALTSGVHTFPAVLQSSGLYSLSSVVTVPSSSLGTKTYTCNVDHKPSNTKVDKRVESKYGPPCPSCPAPEFLGGPSVFLFPPKPKDTLMISRTPEVTCVVVDVSQEDPEVQFNWYVDGVEVHNAKTKPREEQFNSTYRVVSVLTVLHQDWLNGKEYKCKVSNKGLPSSIEKTISKAKGQPREPQVYTLPPSQEEMTKNQVSLTCLVKGFYPSDIAVEWESNGQPENNYKTTPPVLDSDGSFFLYSRLTVDKSRWQEGNVFSCSVMHEALHNHYTQKSLSLSPGK
light: not shown
notes: also called IgG4 R707; IgG4 formatted MSM R707
B3: MSM R735 in IgG4 format (antibody)
heavy: EVQLLESGGGLVQPGGSLRLSCAASGFTFSNYNMHWVRQAPGKGLEWVSGIGPRRGRTYYADSVKGRFTISRDNSKNTLYLQMNSLRAEDTAVYYCARSYAYQYRGLDYWGQGTLVTVSSASTKGPSVFPLAPCSRSTSESTAALGCLVKDYFPEPVTVSWNSGALTSGVHTFPAVLQSSGLYSLSSVVTVPSSSLGTKTYTCNVDHKPSNTKVDKRVESKYGPPCPSCPAPEFLGGPSVFLFPPKPKDTLMISRTPEVTCVVVDVSQEDPEVQFNWYVDGVEVHNAKTKPREEQFNSTYRVVSVLTVLHQDWLNGKEYKCKVSNKGLPSSIEKTISKAKGQPREPQVYTLPPSQEEMTKNQVSLTCLVKGFYPSDIAVEWESNGQPENNYKTTPPVLDSDGSFFLYSRLTVDKSRWQEGNVFSCSVMHEALHNHYTQKSLSLSPGK
light: EIVLTQSPGTLSLSPGERATLSCRASQSVSSSYLAWYQQKPGQAPRLLIYGASSRATGIPDRFSGSGSGTDFTLTISRLEPEDFAVYYCQQGSPVTFGQGTKVEIKRTVAAPSVFIFPPSDEQLKSGTASVVCLLNNFYPREAKVQWKVDNALQSGNSQESVTEQDSKDSTYSLSSTLTLSKADYEKHKVYACEVTHQGLSSPVTKSFNRGEC
notes: also called IgG4 formatted MSM R735
B4: R707MSF (MSM-R707 HC CDR3 mutant, IgG1) (antibody, V domains shown)
VH: EVQLLESGGGLVQPGGSLRLSCAASGFTFSNYAIHWVRQAPGKGLEWVSAITPRGGYTYYADSVKGRFTISRDNSKNTLYLQMNSLRAEDTAVYYCARGLTMSYTPGFDYWGQGTLVTVSS
VL: not shown
notes: IgG1
B5: R707FMF (MSM-R707 HC CDR3 mutant, IgG1) (antibody, V domains shown)
VH: B4 VH with M102F, S103M
VL: not shown
notes: IgG1
B6: R707IMF (MSM-R707 HC CDR3 mutant, IgG1) (antibody, V domains shown)
VH: B4 VH with M102I, S103M
VL: not shown
notes: IgG1
B7: R707KMF (MSM-R707 HC CDR3 mutant, IgG1) (antibody, V domains shown)
VH: B4 VH with M102K, S103M
VL: not shown
notes: IgG1
B8: R707LMF (MSM-R707 HC CDR3 mutant, IgG1) (antibody, V domains shown)
VH: B4 VH with M102L, S103M
VL: not shown
notes: IgG1
B9: R707MAF (MSM-R707 HC CDR3 mutant, IgG1) (antibody, V domains shown)
VH: B4 VH with S103A
VL: not shown
notes: IgG1
B10: R707MGF (MSM-R707 HC CDR3 mutant, IgG1) (antibody, V domains shown)
VH: B4 VH with S103G
VL: not shown
notes: IgG1
B11: R707MLF (MSM-R707 HC CDR3 mutant, IgG1) (antibody, V domains shown)
VH: B4 VH with S103L
VL: not shown
notes: IgG1
B12: R707MPF (MSM-R707 HC CDR3 mutant, IgG1) (antibody, V domains shown)
VH: B4 VH with S103P
VL: not shown
notes: IgG1
B13: R707MQF (MSM-R707 HC CDR3 mutant, IgG1) (antibody, V domains shown)
VH: B4 VH with S103Q
VL: not shown
notes: IgG1
B14: R707MRF (MSM-R707 HC CDR3 mutant, IgG1) (antibody, V domains shown)
VH: B4 VH with S103R
VL: not shown
notes: IgG1
B15: R707MTF (MSM-R707 HC CDR3 mutant, IgG1) (antibody, V domains shown)
VH: B4 VH with S103T
VL: not shown
notes: IgG1
B16: R707MVF (MSM-R707 HC CDR3 mutant, IgG1) (antibody, V domains shown)
VH: B4 VH with S103V
VL: not shown
notes: IgG1
B17: R707NMF (MSM-R707 HC CDR3 mutant, IgG1) (antibody, V domains shown)
VH: B4 VH with M102N, S103M
VL: not shown
notes: IgG1
B18: R707RMF (MSM-R707 HC CDR3 mutant, IgG1) (antibody, V domains shown)
VH: B4 VH with M102R, S103M
VL: not shown
notes: IgG1
B19: R707SMF (MSM-R707 HC CDR3 mutant, IgG1) (antibody, V domains shown)
VH: B4 VH with M102S, S103M
VL: not shown
notes: IgG1
B20: R707TMF (MSM-R707 HC CDR3 mutant, IgG1) (antibody, V domains shown)
VH: B4 VH with M102T, S103M
VL: not shown
notes: IgG1
B21: R707WMF (MSM-R707 HC CDR3 mutant, IgG1) (antibody, V domains shown)
VH: B4 VH with M102W, S103M
VL: not shown
notes: IgG1
B22: MSM-R707BI (fully human anti-human CCR7 antibody, IgG1) (antibody, V domains shown)
VH: B4 VH with M102I
VL: not shown
notes: IgG1 format; HC CDR3 derivative of MSM-R707; also called MSM-R7707BI; R707B1
B23: MSM-R707BL (fully human anti-human CCR7 antibody, IgG1) (antibody, V domains shown)
VH: B4 VH with M102L
VL: not shown
notes: IgG1 format; HC CDR3 derivative of MSM-R707
B24: MSM-R707BR (fully human anti-human CCR7 antibody, IgG1) (antibody, V domains shown)
VH: B4 VH with M102R
VL: not shown
notes: as for B23

Experiments:
human CD22 = target: T1, human CD22 (human, UniProt P20273 20-847); test: cell-based or functional assay
T1 sequence (looked up): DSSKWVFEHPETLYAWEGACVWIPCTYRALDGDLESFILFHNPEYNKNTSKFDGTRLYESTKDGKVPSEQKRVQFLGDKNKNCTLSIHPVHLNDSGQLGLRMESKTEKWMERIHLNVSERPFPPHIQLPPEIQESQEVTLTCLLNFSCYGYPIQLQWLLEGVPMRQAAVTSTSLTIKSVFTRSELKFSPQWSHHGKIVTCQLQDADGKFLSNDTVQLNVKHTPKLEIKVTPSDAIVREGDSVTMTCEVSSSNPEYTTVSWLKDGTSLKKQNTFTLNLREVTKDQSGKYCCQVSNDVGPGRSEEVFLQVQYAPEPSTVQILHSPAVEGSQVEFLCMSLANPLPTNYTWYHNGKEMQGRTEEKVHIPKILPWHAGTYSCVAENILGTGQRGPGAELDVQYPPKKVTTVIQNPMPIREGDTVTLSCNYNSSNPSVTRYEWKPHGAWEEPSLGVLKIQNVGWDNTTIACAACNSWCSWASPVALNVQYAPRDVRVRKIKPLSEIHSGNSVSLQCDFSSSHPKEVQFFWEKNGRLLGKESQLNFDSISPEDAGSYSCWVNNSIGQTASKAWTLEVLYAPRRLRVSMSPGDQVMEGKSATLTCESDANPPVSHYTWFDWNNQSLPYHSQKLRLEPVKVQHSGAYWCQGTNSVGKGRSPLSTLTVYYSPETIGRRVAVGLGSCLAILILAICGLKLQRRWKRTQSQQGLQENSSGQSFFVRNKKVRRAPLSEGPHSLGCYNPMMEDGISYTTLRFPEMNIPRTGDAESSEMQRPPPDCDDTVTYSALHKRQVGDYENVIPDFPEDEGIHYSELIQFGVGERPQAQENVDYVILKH

[1] = target: T2, human chemokine receptor CCR7 (human, UniProt P32248 25-378); test: cell-based or functional assay
T2 sequence: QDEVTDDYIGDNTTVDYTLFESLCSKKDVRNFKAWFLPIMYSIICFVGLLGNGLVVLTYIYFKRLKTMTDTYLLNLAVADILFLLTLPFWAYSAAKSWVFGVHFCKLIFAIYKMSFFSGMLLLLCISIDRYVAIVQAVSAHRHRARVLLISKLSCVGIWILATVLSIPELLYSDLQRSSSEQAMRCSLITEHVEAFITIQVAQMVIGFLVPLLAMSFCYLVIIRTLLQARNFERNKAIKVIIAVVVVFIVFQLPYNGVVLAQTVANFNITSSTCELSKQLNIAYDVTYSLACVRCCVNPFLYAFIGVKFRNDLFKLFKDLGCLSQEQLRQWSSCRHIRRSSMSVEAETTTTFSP

[2] = target: T2, human chemokine receptor CCR7; test: flow cytometry titration on CCR7 over-expressing cells (direct binding, printed as IC50)
[3] = target: T2, human chemokine receptor CCR7; test: IgG1 of Table 16 on human CCR7-expressing cells
[4] = target: T2, human chemokine receptor CCR7; test: flow cytometry titration, CHO cells expressing human CCR7
[5] = target: T2, human chemokine receptor CCR7; test: flow cytometry titration, CHO-human CCR7 cells, anti-human Fc-PE
Procedure: The affinity of IgG1 antibodies to human CCR7 was evaluated by measuring mean fluorescence value (MFI) of cells expressing CCR7 in the presence of varying concentration of antibody in question, upon staining of bound to the cells antibodies with a commercial anti-human antibody-PE conjugate. The data of such experiments are depicted in FIGS. 9, 10, and 11. In these experiments binding of some antibodies to parental cells or cells expressing mouse CCR7 was also quantitatively characterized by obtaining EC₅₀ value (a concentration of IgG1 at which half-maximum MFI is achieved) for each curve using the SoftMaxPro5 program.

Binder	binding result [3]	further results
B1	–	EC50 of cell killing with mouse Fab-ZAP, CLL-AAT cells (human CD22): 0.06 nM; EC50 of cell killing with mouse Fab-ZAP, JVM-13 cells (human CD22): 0.5 nM
B2	–	IC50 of inhibition of Ca-flux induced by 18 nM CCL19, Chem-1 CCR7h cells [1]: ~20 nM; IC50 [2]: 4.9 to 7.6 nM
B3	–	IC50 of inhibition of CCL19-induced Ca-flux in cells expressing human CCR7 [1]: 128 nM; IC50 [2]: 2.5 to 5.3 nM
B4	binds	–
B5	binds	–
B6	binds	–
B7	binds	–
B8	binds	–
B9	binds	–
B10	binds	–
B11	binds	–
B12	binds	–
B13	binds	–
B14	binds	–
B15	binds	–
B16	binds	–
B17	binds	–
B18	binds	–
B19	binds	–
B20	binds	–
B21	binds	–
B22	–	EC50 [4]: 6.7 nM; EC50 [5]: 5.5 nM
B23	–	EC50 [5]: 2.6 nM
B24	–	EC50 [5]: 1.9 nM
